Results from article PMC2691479, “SNX4 in Complex with Clathrin and Dynein: Implications for Endosome Movement” (PLoS ONE, 2009).

Biological target: T1, Sorting nexin 4 (SNX4), endogenous (human (endogenous in HEK293), UniProt O95219 1-450)
T1 construct: SNX4, endogenous in HEK293 cells, precipitated with anti-SNX4 (E-18); source: endogenous, HEK293 lysate
T1 sequence (looked up): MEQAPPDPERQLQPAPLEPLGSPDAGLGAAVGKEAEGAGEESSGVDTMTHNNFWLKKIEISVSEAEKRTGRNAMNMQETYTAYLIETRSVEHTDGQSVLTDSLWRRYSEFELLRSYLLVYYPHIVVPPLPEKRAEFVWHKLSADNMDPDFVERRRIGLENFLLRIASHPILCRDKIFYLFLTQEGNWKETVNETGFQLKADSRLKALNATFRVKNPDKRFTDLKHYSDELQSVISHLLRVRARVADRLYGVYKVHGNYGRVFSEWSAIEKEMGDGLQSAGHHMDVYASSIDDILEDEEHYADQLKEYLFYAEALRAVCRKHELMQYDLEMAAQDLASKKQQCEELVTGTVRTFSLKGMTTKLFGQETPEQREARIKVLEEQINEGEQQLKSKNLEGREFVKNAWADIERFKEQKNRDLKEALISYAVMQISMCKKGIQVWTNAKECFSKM
Experiment: co-IP; anti-SNX4 (E-18) on Protein A Sepharose, HEK293 lysate (0.1 M NaCl, 10 mM Na2HPO4 pH 7.4, 1 mM EDTA, 1% Triton X-100), overnight at 4°C, Western blot; cells untreated, or transfected with control, SNX4 or CHC siRNA, or treated with nocodazole for 30 min
Conditions: partners not purified

B1: clathrin heavy chain (CHC), endogenous (natural protein, human (endogenous in HEK293), UniProt Q00610 1-1675, looked up)
chain: MAQILPIRFQEHLQLQNLGINPANIGFSTLTMESDKFICIREKVGEQAQVVIIDMNDPSNPIRRPISADSAIMNPASKVIALKAGKTLQIFNIEMKSKMKAHTMTDDVTFWKWISLNTVALVTDNAVYHWSMEGESQPVKMFDRHSSLAGCQIINYRTDAKQKWLLLTGISAQQNRVVGAMQLYSVDRKVSQPIEGHAASFAQFKMEGNAEESTLFCFAVRGQAGGKLHIIEVGTPPTGNQPFPKKAVDVFFPPEAQNDFPVAMQISEKHDVVFLITKYGYIHLYDLETGTCIYMNRISGETIFVTAPHEATAGIIGVNRKGQVLSVCVEEENIIPYITNVLQNPDLALRMAVRNNLAGAEELFARKFNALFAQGNYSEAAKVAANAPKGILRTPDTIRRFQSVPAQPGQTSPLLQYFGILLDQGQLNKYESLELCRPVLQQGRKQLLEKWLKEDKLECSEELGDLVKSVDPTLALSVYLRANVPNKVIQCFAETGQVQKIVLYAKKVGYTPDWIFLLRNVMRISPDQGQQFAQMLVQDEEPLADITQIVDVFMEYNLIQQCTAFLLDALKNNRPSEGPLQTRLLEMNLMHAPQVADAILGNQMFTHYDRAHIAQLCEKAGLLQRALEHFTDLYDIKRAVVHTHLLNPEWLVNYFGSLSVEDSLECLRAMLSANIRQNLQICVQVASKYHEQLSTQSLIELFESFKSFEGLFYFLGSIVNFSQDPDVHFKYIQAACKTGQIKEVERICRESNCYDPERVKNFLKEAKLTDQLPLIIVCDRFDFVHDLVLYLYRNNLQKYIEIYVQKVNPSRLPVVIGGLLDVDCSEDVIKNLILVVRGQFSTDELVAEVEKRNRLKLLLPWLEARIHEGCEEPATHNALAKIYIDSNNNPERFLRENPYYDSRVVGKYCEKRDPHLACVAYERGQCDLELINVCNENSLFKSLSRYLVRRKDPELWGSVLLESNPYRRPLIDQVVQTALSETQDPEEVSVTVKAFMTADLPNELIELLEKIVLDNSVFSEHRNLQNLLILTAIKADRTRVMEYINRLDNYDAPDIANIAISNELFEEAFAIFRKFDVNTSAVQVLIEHIGNLDRAYEFAERCNEPAVWSQLAKAQLQKGMVKEAIDSYIKADDPSSYMEVVQAANTSGNWEELVKYLQMARKKARESYVETELIFALAKTNRLAELEEFINGPNNAHIQQVGDRCYDEKMYDAAKLLYNNVSNFGRLASTLVHLGEYQAAVDGARKANSTRTWKEVCFACVDGKEFRLAQMCGLHIVVHADELEELINYYQDRGYFEELITMLEAALGLERAHMGMFTELAILYSKFKPQKMREHLELFWSRVNIPKVLRAAEQAHLWAELVFLYDKYEEYDNAIITMMNHPTDAWKEGQFKDIITKVANVELYYRAIQFYLEFKPLLLNDLLMVLSPRLDHTRAVNYFSKVKQLPLVKPYLRSVQNHNNKSVNESLNNLFITEEDYQALRTSIDAYDNFDNISLAQRLEKHELIEFRRIAAYLFKGNNRWKQSVELCKKDSLYKDAMQYASESKDTELAEELLQWFLQEEKRECFGACLFTCYDLLRPDVVLETAWRHNIMDFAMPYFIQVMKEYLTKVDKLDASESLRKEEEQATETQPIVYGQPQLMLTAGPSVAVPPQAPFGYGYTAPPYGQPQPGFGYSM
notes: clathrin heavy chain, endogenous in HEK293 cells, detected with anti-CHC; source: endogenous, HEK293 lysate
For B1, which “fold change of CHC binding to SNX4, nocodazole-treated against untreated cells” value is on record?
Its value is 2.3 fold.
